# Patent US20250277023A1 (published 2025)
# T1: TIGIT (on CHO-TIGIT cells) (UniProt Q495A1 22-244)
# T1 chain: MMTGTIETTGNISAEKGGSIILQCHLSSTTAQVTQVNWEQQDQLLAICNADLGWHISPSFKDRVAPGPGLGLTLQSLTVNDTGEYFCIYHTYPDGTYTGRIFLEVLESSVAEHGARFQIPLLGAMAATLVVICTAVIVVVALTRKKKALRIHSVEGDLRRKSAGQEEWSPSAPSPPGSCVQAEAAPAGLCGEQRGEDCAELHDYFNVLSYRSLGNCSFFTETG
# What was measured:
# [1] = target: T2, PD-L1 (on CHO-PD-L1 cells) (UniProt Q9NZQ7 19-290); test: FACS binding; Fig. 23
# [2] = target: T2, PD-L1 (on CHO-PD-L1 cells); test: FACS binding; Fig. 21
# [3] = target: T2, PD-L1 (on CHO-PD-L1 cells); test: FACS binding; Fig. 26
# [4] = target: T1, TIGIT (on CHO-TIGIT cells); test: FACS binding; Fig. 20
# [5] = target: T1, TIGIT (on CHO-TIGIT cells); test: FACS blocking of PVR binding to CHO-Tigit; Fig. 27
# [6] = target: T2, PD-L1 (on CHO-PD-L1 cells); test: FACS binding; Fig. 22
# T2 sequence (Q9NZQ7 19-290): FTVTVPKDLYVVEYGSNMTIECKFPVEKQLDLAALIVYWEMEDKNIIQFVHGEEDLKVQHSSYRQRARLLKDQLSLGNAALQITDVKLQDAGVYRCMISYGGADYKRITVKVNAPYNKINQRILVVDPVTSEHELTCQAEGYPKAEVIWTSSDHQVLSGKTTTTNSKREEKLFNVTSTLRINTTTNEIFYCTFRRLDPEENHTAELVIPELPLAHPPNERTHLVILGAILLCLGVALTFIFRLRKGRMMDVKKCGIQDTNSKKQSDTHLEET
EC50 [1] [nM],EC50 [2] [nM],EC50 [3] [nM],EC50 [4] [nM],EC50 [5] [nM],EC50 [6] [nM],Binder
0.903,0.571,,,,,R0950: PD-L1_VH_IL15RA/PD-L1_VL_IL15/TIGIT-Fab (bispecific antibody) chain 1: EVQLLESGGGLVQPGGSLRLSCAASGFTFSSYIMMWVRQAPGKGLEWVSSIYPSGGITFYADTVKGRFTISRDNSKNTLYLQMNSLRAEDTAVYYCARIKLGTVTTVDYWGQGTLVTVSSGGGGSGGGGSGGGGSGGGGSGITCPPPMSVEHADIWVKSYSLYSRERYICNSGFKRKAGTSSLTECVLNKATNVAHWTTPSLKCIRDPALVHQRPAPPSTVTTAGVTPQPESLSPSGKEPAASSPSSNNTAATTAAIVPGSQLMPSKSPSTGTTEISSHESSHGTPSQTTAKNWELTASASHQPPGVYPQGHSDTTEPRGPTIKPCPPCKCPAPNLLGGPSVFIFPPKIKDVLMISLSPIVTCVVVDVSEDDPDVQISWFVNNVEVHTAQTQTHREDYNSTLRVVSALPIQHQDWMSGKEFKCKVNNKDLPAPIERTISKPKGSVRAPQVYVLPPPEEEMTKKQVTLWCMVTDFMPEDIYVEWTNNGKTELNYDNTEPVLDSDGSYFMYSDLRVEKKNWVERNSYSCSVVHEGLHNHHTTKSFSRTPGK chain 2: not shown heavy: QVQLESEGGLFKPTDTLTLTCTVSGSSLSSSYMSWVRQAPGKGLEWIGIIGSNGNTYYANWAKGRFTISKTSTTVELKITSPTTEDTATYFCARGGYRTSGMDPWGPGTLVTVSSAKTTAPSVYPLAPVCGDTTGSSVTLGCLVKGYFPEPVTLTWNSGSLSSGVHTFPAVLQSDLYTLSSSVTVTSSTWPSQSITCNVAHPASSTKVDKKIEPRGPTIKPCPPCKCPAPNLLGGPSVFIFPPKIKDVLMISLSPIVTCVVVDVSEDDPDVQISWFVNNVEVHTAQTQTHREDYNSTLRVVSALPIQHQDWMSGKEFKCKVNNKDLPAPIERTISKPKGSVRAPQVYVLPPPEEEMTKKQVTLTCRVTDFMPEDIYVEWTNNGKTELNYKNTEPVLKSDGSYFMASKLRVEKKNWVERNSYSCSVVHEGLHNHHTTKSFSRTPGK light: DIVMTQTPASVEVAVGGTVTIKCQASQSISSYLNWYQQKPGQPPKLLIYDALKLASGVPSRFSGSGSGTEYTLTISGVESADAATYYCQQEHSVGNVDNVFGGGTEVVVKRTDAAPTVSIFPPSSEQLTSGGASVVCFLNNFYPKDINVKWKIDGSERQNGVLNSWTDQDSKDSTYSMSSTLTLTKDEYERHNSYTCEATHKTSTSPIVKSFNRNEC
,,2.64,11.3,50.4,,R1262: TIGIT VH-IL2Rα mutant-Fc/TIGIT VL-IL2 mutant/PD-L1_VH-hIgG1/PD-L1 VL-κ-Ig LC (bispecific antibody) chain 1: QVQLVQSGAEVKKPGSSVKVSCKASGYSFTSYWMNWVRQAPGQGLEWIGMIRPSDSETRLNQMFKDRVTITVDKSTSTAYMELSSLRSEDTAVYYCAGIHDYGHGAYWGQGTLVTVSSGGGGSGGGGSGGGGSGGGGCGELCDDDPPEIPHATFKAMAYKEGTMLNCECKRGFRRIKSGSLYMLCTGNSSHSSWDNQCQCTSSATRNTTKQVTPQPEEQKERKTTEMQSPMQPVDQASLPGHCREPPPWENEATERIYHFVVGQMVYYQCVQGYRALHRGPAESVCKMTHGKTRWTQPQLICTGEPKSSDKTHTCPPCPAPELLGGPSVFLFPPKPKDTLMISRTPEVTCVVVDVSHEDPEVKFNWYVDGVEVHNAKTKPREEQYNSTYRVVSVLTVLHQDWLNGKEYKCKVSNKALPAPIEKTISKAKGQPREPQVYTLPPSREEMTKNQVSLTCRVKGFYPSDIAVEWESNGQPENNYKTTPPVLKSDGSFFLASKLTVDKSRWQQGNVFSCSVMHEALHNHYTQKSLSLSPGK chain 2: not shown heavy: EVQLQESGPGLVKPSETLSLTCAVYGDSITSGYWNWIRKPPGKGLEYMGYISYTGSTYQNPSLKSRITFSRDTSKNQYYLKLSSVTAADTATYYCARSRAWIRTYFDYWGQGTLVTVSSASTKGPSVFPLAPSSKSTSGGTAALGCLVKDYFPEPVTVSWNSGALTSGVHTFPAVLQSSGLYSLSSVVTVPSSSLGTQTYICNVNHKPSNTKVDKRVEPKSCDKTHTCPPCPAPELLGGPSVFLFPPKPKDTLMISRTPEVTCVVVDVSHEDPEVKFNWYVDGVEVHNAKTKPREEQYNSTYRVVSVLTVLHQDWLNGKEYKCKVSNKALPAPIEKTISKAKGQPREPQVYTLPPSREEMTKNQVSLWCLVKGFYPSDIAVEWESNGQPENNYDTTPPVLDSDGSFFLYSDLTVDKSRWQQGNVFSCSVMHEALHNHYTQKSLSLSPGK light: EIVLTQSPDFQSVTPKEKVTITCSVSSSISSSNLHWYQQKPDQSPKLLIYGTSNLASGVPSRFSGSGSGTDFTLTINSLEAEDAATYYCQQWSSYPLTFGQGTKLEIKRTVAAPSVFIFPPSDEQLKSGTASVVCLLNNFYPREAKVQWKVDNALQSGNSQESVTEQDSKDSTYSLSSTLTLSKADYEKHKVYACEVTHQGLSSPVTKSFNRGEC
,,3.11,15.7,336,3.72,R1115: TIGIT_VH_IL2RA/TIGIT_VL_IL2/PD-L1-Fab (bispecific antibody) chain 1: QVQLVQSGAEVKKPGSSVKVSCKASGYSFTSYWMNWVRQAPGQGLEWIGMIRPSDSETRLNQMFKDRVTITVDKSTSTAYMELSSLRSEDTAVYYCAGIHDYGHGAYWGQGTLVTVSSGGGGSGGGGSGGGGSGGGGSGELCDDDPPEIPHATFKAMAYKEGTMLNCECKRGFRRIKSGSLYMLCTGNSSHSSWDNQCQCTSSATRNTTKQVTPQPEEQKERKTTEMQSPMQPVDQASLPGHCREPPPWENEATERIYHFVVGQMVYYQCVQGYRALHRGPAESVCKMTHGKTRWTQPQLICTGEPKSSDKTHTCPPCPAPELLGGPSVFLFPPKPKDTLMISRTPEVTCVVVDVSHEDPEVKFNWYVDGVEVHNAKTKPREEQYNSTYRVVSVLTVLHQDWLNGKEYKCKVSNKALPAPIEKTISKAKGQPREPQVYTLPPSREEMTKNQVSLTCRVKGFYPSDIAVEWESNGQPENNYKTTPPVLKSDGSFFLASKLTVDKSRWQQGNVFSCSVMHEALHNHYTQKSLSLSPGK chain 2: not shown heavy: EVQLQESGPGLVKPSETLSLTCAVYGDSITSGYWNWIRKPPGKGLEYMGYISYTGSTYQNPSLKSRITFSRDTSKNQYYLKLSSVTAADTATYYCARSRAWIRTYFDYWGQGTLVTVSSASTKGPSVFPLAPSSKSTSGGTAALGCLVKDYFPEPVTVSWNSGALTSGVHTFPAVLQSSGLYSLSSVVTVPSSSLGTQTYICNVNHKPSNTKVDKRVEPKSCDKTHTCPPCPAPELLGGPSVFLFPPKPKDTLMISRTPEVTCVVVDVSHEDPEVKFNWYVDGVEVHNAKTKPREEQYNSTYRVVSVLTVLHQDWLNGKEYKCKVSNKALPAPIEKTISKAKGQPREPQVYTLPPSREEMTKNQVSLWCLVKGFYPSDIAVEWESNGQPENNYDTTPPVLDSDGSFFLYSDLTVDKSRWQQGNVFSCSVMHEALHNHYTQKSLSLSPGK light: EIVLTQSPDFQSVTPKEKVTITCSVSSSISSSNLHWYQQKPDQSPKLLIYGTSNLASGVPSRFSGSGSGTDFTLTINSLEAEDAATYYCQQWSSYPLTFGQGTKLEIKRTVAAPSVFIFPPSDEQLKSGTASVVCLLNNFYPREAKVQWKVDNALQSGNSQESVTEQDSKDSTYSLSSTLTLSKADYEKHKVYACEVTHQGLSSPVTKSFNRGEC
